Measurements as given in patent US20240132546A1 (Molecular Partners, published 2024).

What was measured:
[1] = molecular target: T1, biotinylated full-length HER2 (human, UniProt P04626 23-652, limits assumed, biotinylated (site not stated)); experiment: SPR, single trace, 500 nM analyte over biotinylated HER2 on the chip, double-referenced, 1:1 Langmuir fit
T1 construct: Immobilised on the SPR chip; also called bio-HER2; Human Epidermal Growth Factor Receptor 2
From the text: (§1) FIG. 4: Single-trace SPR profiles of DTPA-coupled DARPins (also referred to as constructs, see Table 7) against biotinylated full-length HER2. As reference, plots 1 and 2 show the profiles of the HER2-binding parental DARPin06 (SEQ ID NO: 6) and DARPin11 (SEQ ID NO: 11), respectively. Plots 3, 4, 5, 6 and 7 show the profiles of construct 6 (DARPin06-GSGSC-DTPA), construct 7 (DARPin07-GSGSC-DTPA), construct 8 (DARPin08-GSGSC-DTPA), construct 9 (DARPin09-GSGSC-DTPA) and construct 10 (DARPin10-GSGSC-DTPA), respectively. Plots 8 and 9 show construct 11 (DARPin11-GSGSC-DTPA) and construct 12 (DARPin12-GSGSC-DTPA), respectively. The GSGSC tag (SEQ ID NO: 14) was fused to the C-terminal end of the DARPins. All analytes (500 nM) were injected in succession for 120s, dissociation was recorded for 180s (25 ul/min of PBS-Tween20 (0.005%)). Each injection was followed by a regeneration step with glycine pH2.0 for 60s. The data was double referenced (control spot and buffer injection) and fitted to a 1:1 Langmuir model.
A surface plasmon resonance (SPR) assay was used to determine if the charge-engineered DARPin variants derived from the parental DARPin06 (SEQ ID NO: 6) and DARPin11 (SEQ ID NO: 11) could still bind to HER2. […] All analytes (500 nM) were injected in succession for 120s, dissociation was recorded for 180s (25 ul/min). […]

[2] = molecular target: T1, biotinylated full-length HER2; experiment: SPR, single trace, 500 nM analyte over biotinylated HER2 on the chip, double-referenced, 1:1 Langmuir fit [continued]
From the text: as §1
A surface plasmon resonance (SPR) assay was used to determine if the charge-engineered DARPin variants derived from the parental DARPin06 (SEQ ID NO: 6) and DARPin11 (SEQ ID NO: 11) could still bind to HER2. All SPR data were generated using a Bruker Sierra SPR-32 instrument with PBS-T (0.005% Tween 20) as running buffer. A new Bruker BTC Chip was conditioned according to the manufacturer's protocol. The chip was coated with biotinylated target (bio-HER2) to reach a signal intensity of approximatively 600 RU. All analytes (500 nM) were injected in succession for 120s, dissociation was recorded for 180s (25 ul/min). Each injection was followed by a regeneration step with glycine pH 2.0 for 60s. The data was double referenced (control spot and buffer injection) and fitted to a 1:1 Langmuir model. […] A DTPA coupled DARPin is also referred to as a “construct”. SPR curves are shown in FIG. 4 where plots 1 and 2 show the profiles of the HER2-binding parental DARPin06 and DARPin11 (SEQ ID NOs: 6 and 11, respectively).

[3] = molecular target: T1, biotinylated full-length HER2; experiment: SPR multi-trace, biotinylated HER2 on chip, analyte 0.617-50 nM, global 1:1 Langmuir fit
From the text: (§2) FIGS. 9A-9F: Multi-trace SPR profiles of DTPA-coupled DARPins (also referred to as constructs, see Tables 7 and 16) against biotinylated full-length HER2. FIGS. 9A, 9B, 9C, 9D, 9E, and 9F show the profiles of construct 6 (DARPin06-GSGSC-DTPA), construct 8 (DARPin08-GSGSC-DTPA), construct 13 (DARPin13-GSGSC-DTPA), construct 14 (DARPin14-GSGSC-DTPA), construct 15 (DARPin15-GSGSC-DTPA) and construct 16 (DARPin16-GSGSC-DTPA), respectively. The GSGSC tag (SEQ ID NO: 14) was fused to the C-terminal end of the DARPins. Three-fold dilutions of the analytes (50, 16.667, 5.556, 1.852 and 0.617 nM) were injected for 300s, dissociation was recorded for 1500s (25 ul/min). Each injection was followed by a regeneration step with glycine pH 2.0 for 60s. Dissociation constants (KD) were calculated from the globally fitted on- and off-rates using standard 1:1-Langmuir model (see Table 17).
(§3) Binding kinetics of the constructs to the target protein HER2 was measured in a multi-trace SPR assay. A new Xantec NAHLC200M chip was conditioned according to the manufacturer's protocol. The chip was coated with biotinylated target (bio-HER2, 10 ug/mL) for 900s to reach a signal intensity of approximately 1200-1300 RU. Three-fold dilutions of the analytes (50, 16.667, 5.556, 1.852 and 0.617 nM) were injected for 300s, dissociation was recorded for 1500s (25 ul/min). Each injection was followed by a regeneration step with glycine pH 2.0 for 60s. The signals (i.e. resonance unit (RU) values) of empty surface and a reference injection (i.e. injection of running buffer only) were subtracted from the RU traces obtained injecting the constructs (double-referencing). Dissociation constants (KD) were calculated from the globally fitted on- and off-rates using standard 1:1-Langmuir model.

[4] = molecular target: T1, biotinylated full-length HER2; experiment: as above; remark: listed apart in the source
From the text: as §2, §3

Kd [1] [nM] | Kd [2] [nM] | Kd [3] [nM] | Kd [4] [nM] | koff [4] [s⁻¹] | kon [4] [M⁻¹ s⁻¹] | Binder
0.0575 | – | – | – | – | – | parental DARPin06 (designed binder) DLGKKLLEAARAGQDDEVRELLKAGADVNAKDEYGLTPLYLATAHGHLEIVEVLLKAGADVNAVDAIGFTPLHLAAFIGHLEIAEVLLKAGADVNAQDKFGKTPADIAAGAGNEDIAEVLQKAA
– | – | < 1 | 0.615 | 0.00026 | 422000 | DARPin16-GSGSC-DTPA (designed binder, maleimide-DTPA coupled to the C-terminal Cys of the GSGSC tag, Charge variant derived from DARPin06; His-TEV tag cleaved off; possible N-terminal GS not included; also called construct 16) DLGTQLLEAAESGQLDEVRELLKAGADVNAQDEYGLTPLYLATAHGHLEIVTVLLEAGADVNAQDAIGFTPLHLAAFIGHLEIATVLLEAGADVNAQDKFGTTPADIAAGAGNEDIAEVLQKAAGSGSC
– | – | < 1 | 0.23 | 0.000121 | 524000 | DARPin14-GSGSC-DTPA (designed binder, maleimide-DTPA coupled to the C-terminal Cys of the GSGSC tag, Charge variant derived from DARPin06; His-TEV tag cleaved off; possible N-terminal GS not included; also called construct 14) DLGTQLLEAAESGQLDEVRELLQAGADVNAQDEYGLTPLYLATAHGHLEIVTVLLEAGADVNAQDAIGFTPLHLAAFIGHLEIATVLLEAGADVNAQDKFGKTPADIAAGAGNEDIAEVLQKAAGSGSC
– | – | < 1 | 0.637 | 0.000214 | 336000 | DARPin15-GSGSC-DTPA (designed binder, maleimide-DTPA coupled to the C-terminal Cys of the GSGSC tag, Charge variant derived from DARPin06; His-TEV tag cleaved off; possible N-terminal GS not included; also called construct 15) DLGTQLLRAAESGQLDEVRELLKAGADVNAQDEYGLTPLYLATAHGHLEIVTVLLEAGADVNAQDAIGFTPLHLAAFIGHLEIATVLLEAGADVNAQDNFGTTPADIAAGAGNEDIAEVLQQAAGSGSC

The next lines start with the binder.

Binder | Kd [1] [nM] | Kd [2] [nM] | Kd [3] [nM] | Kd [4] [nM] | koff [4] [s⁻¹] | kon [4] [M⁻¹ s⁻¹]
DARPin12-GSGSC-DTPA (designed binder, maleimide-DTPA coupled to the C-terminal Cys of the GSGSC tag, Charge variant of DARPin11; His-TEV tag cleaved off; possible N-terminal GS not included; also called construct 12) DLGIQLLFAAAKGQLDTVRTLLQAGADVNAKDFQGVTPLHIAAQSGHLQIVEVLLQAGADVNAKDVTGDTPLHLAAQHGHLQIVTVLLQAGADVNAQDERGWTPADLAADWGNQQIAEVLQQAAGSGSC | – | 0.982 | – | – | – | –
DARPin07-GSGSC-DTPA (designed binder, maleimide-DTPA coupled to the C-terminal Cys of the GSGSC tag, Charge variant of DARPin06 (negative control for kidney uptake, higher pI); His-TEV tag cleaved off; possible N-terminal GS not included; also called construct 7) DLGTQLLRAAESGQLDTVRTLLKAGADVNAKDEYGLTPLYLATAHGHLQIVRVLLQAGADVNAKDAIGFTPLHLAAFIGHLKIAEVLLKAGADVNAQDKFGKTPAQIAATAGNQQIASVLQKAAGSGSC | – | 0.457 | – | – | – | –
DARPin09-GSGSC-DTPA (designed binder, maleimide-DTPA coupled to the C-terminal Cys of the GSGSC tag, Charge variant of DARPin06; His-TEV tag cleaved off; possible N-terminal GS not included; also called construct 9) DLGTQLLQAAESGQLDTVRTLLKAGADVNAQDEYGLTPLYLATAHGHLQIVQVLLSAGADVNAQDAIGFTPLHLAAFIGHLQIAQVLLSAGADVNAQDKFGTTPAQIAATAGNQQIASVLQQAAGSGSC | – | 1.44 | – | – | – | –
DARPin11-GSGSC-DTPA (designed binder, maleimide-DTPA coupled to the C-terminal Cys of the GSGSC tag, Parent; His-TEV tag cleaved off; possible N-terminal GS not included; also called construct 11; DTPA coupled parental DARPin11) DLGIKLLFAAAKGQDDEVRELLKAGADVNAKDFQGVTPLHIAAQSGHLEIVEVLLKAGADVNAKDVTGDTPLHLAAQHGHLEIVEVLLKAGADVNAQDERGWTPADLAADWGHEDIAEVLQKAAGSGSC | – | 0.226 | – | – | – | –
DARPin08-GSGSC-DTPA (designed binder, maleimide-DTPA coupled to the C-terminal Cys of the GSGSC tag, Charge variant of DARPin06; His-TEV tag cleaved off; possible N-terminal GS not included; also called construct 8) DLGTQLLRAAESGQLDEVRELLKAGADVNAQDEYGLTPLYLATAHGHLEIVTVLLEAGADVNAQDAIGFTPLHLAAFIGHLEIATVLLEAGADVNAQDKFGKTPADIAAGAGNEDIAEVLQKAAGSGSC | – | 0.583 | < 1 | 0.17 | 8.82e-05 | 521000
DARPin06-GSGSC-DTPA (designed binder, maleimide-DTPA coupled to the C-terminal Cys of the GSGSC tag, Parent; also called construct 6; DTPA coupled parental DARPin06) DLGKKLLEAARAGQDDEVRELLKAGADVNAKDEYGLTPLYLATAHGHLEIVEVLLKAGADVNAVDAIGFTPLHLAAFIGHLEIAEVLLKAGADVNAQDKFGKTPADIAAGAGNEDIAEVLQKAAGSGSC | 0.284 | – | – | 0.216 | 0.000141 | 653000
DARPin10-GSGSC-DTPA (designed binder, maleimide-DTPA coupled to the C-terminal Cys of the GSGSC tag, Charge variant of DARPin06; His-TEV tag cleaved off; possible N-terminal GS not included; also called construct 10) DLGTQLLQAAESGQLDTVRELLKAGADVNAQDEYGLTPLYLATAHGHLQIVRVLLQAGADVNAQDAIGFTPLHLAAFIGHLEIATVLLKAGADVNAQDKFGKTPADIAATAGNQQIASVLQKAAGSGSC | – | 0.622 | – | – | – | –
DARPin13-GSGSC-DTPA (designed binder, maleimide-DTPA coupled to the C-terminal Cys of the GSGSC tag, Charge variant derived from DARPin06; His-TEV tag cleaved off; possible N-terminal GS not included; also called construct 13) DLGTQLLQAAESGQLDEVHDLLQAGADVNAQDEYGLTPLYLATAHGHLEIVTVLLEAGADVNAQDAIGFTPLHLAAFIGHLEIATVLLEAGADVNAQDKFGKTPADIAAGAGNEDIAEVLQKAAGSGSC | – | – | < 1 | 0.357 | 0.000138 | 386000
